From paper PMC9321951, “Thiol redox switches regulate the oligomeric state of cyanobacterial Rre1, RpaA and RpaB response regulators” (Febs Letters, 2022)
Where “and” joins values, the source holds several entries; their conditions need not be identical. Identical values can stand only once.

What was measured:
[1] = biological target: Regulator of Photosynthesis and Photopigment-related gene expression A (RppA), full-length, MBP-tagged (Synechocystis sp. PCC 6803) (UniProt Q55933); assay: non-reducing urea-SDS/PAGE; 2.5 µM RppA with 2 mM diamide, 30 min, room temperature; non-reducing SDS-6 M urea-8% PAGE
[2] = biological target: Regulator of Photosynthesis and Photopigment-related gene expression A (RppA), full-length, MBP-tagged (Synechocystis sp. PCC 6803) (UniProt Q55933); assay: SEC; RppA oxidised with 2 mM diamide, desalted; 0.85 mg on Superdex S200 10/300GL Increase; 100 mM HEPES pH 8.0, 100 mM NaCl; approximate masses from a calibration curve
[3] = biological target: Regulator of Phycobilisome Association B (RpaB), full-length, MBP-tagged (Synechocystis sp. PCC 6803); assay: non-reducing urea-SDS/PAGE; 2.5 µM Rre1, RpaA or RpaB, air-exposed untreated or with 2 mM diamide or 2 mM H2O2, 30 min, room temperature; non-reducing SDS-6 M urea-8% PAGE; shows disulfide-linked oligomers
[4] = biological target: Regulator of Phycobilisome Association B (RpaB), full-length, MBP-tagged (Synechocystis sp. PCC 6803); assay: SEC; RpaB oxidised with 2 mM H2O2, desalted; 0.85 mg on Superdex S200 10/300GL Increase; 5% glycerol, 300 mM NaCl, 100 mM HEPES pH 8.0; approximate masses from a calibration curve
[5] = biological target: the molecule itself; assay: SEC; Rre1 or RpaA oxidised with 2 mM H2O2, desalted; 0.85 mg on Superdex S200 10/300GL Increase; 100 mM HEPES pH 8.0, 100 mM NaCl; approximate masses from a calibration curve

Molecule: Regulator of Photosynthesis and Photopigment-related gene expression A (RppA), full-length, MBP-tagged (from UniProt Q55933 1-234) (natural protein)
- stoichiometry N [1]: 3
- stoichiometry N [2]: 3

Molecule: Regulator of Phycobilisome Association B (RpaB), full-length, MBP-tagged (natural protein)
- stoichiometry N [3]: 2
- stoichiometry N [4]: 4 and 3

B1: Response Regulator 1 (Rre1), full-length, MBP-tagged (natural protein, Synechocystis sp. PCC 6803, UniProt P72781 1-231, looked up)
chain: MAEPISLLLVDDEPGVRESVQAFLEDSGDFKVDLAANATEAWDYLQHHLPALVISDIMMPQVDGYQFLQKLREDARFQSLPVVFLTARGMTGDRIQGYQTGCDAFLSKPFDPDELEAIVRNLLARQQASSDAGSESAKLQEIYQEIRALKEQIGQPSGIHTTPSPIKLDFTPREQSVLDLVSQGLMNKEIAAQLKTSVRNVEKYVSRLFTKTGTNSRTELVRFALQHGLTE
notes: Rre1 (response regulator 1), Synechocystis sp; Cloned KpnI/XhoI into pETG-41A; theoretical mass of the MBP-tagged monomer printed as 75 kDa
- stoichiometry N [5]: 3 and 4
